Results published in patent publication US20220332804A1 (CSL INNOVATION, published 2022).

How the values were obtained:
Experiment in all cases: SPR; KD relative to WT C2;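 note: biacore SPR at 37 °C, anti-C2 mAbs captured on an anti-human IgG chip, alanine or serine C2 surface mutants tested, KD from 1:1 fit compared with wild-type C2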
human complement C2 = molecular target: T1, human complement C2 (human, UniProt P06681 21-752)
T1 construct: Recombinant full-length human C2 with C-terminal 8x His tag, purified from Expi293F supernatant; also called human C2; huC2
T1 sequence: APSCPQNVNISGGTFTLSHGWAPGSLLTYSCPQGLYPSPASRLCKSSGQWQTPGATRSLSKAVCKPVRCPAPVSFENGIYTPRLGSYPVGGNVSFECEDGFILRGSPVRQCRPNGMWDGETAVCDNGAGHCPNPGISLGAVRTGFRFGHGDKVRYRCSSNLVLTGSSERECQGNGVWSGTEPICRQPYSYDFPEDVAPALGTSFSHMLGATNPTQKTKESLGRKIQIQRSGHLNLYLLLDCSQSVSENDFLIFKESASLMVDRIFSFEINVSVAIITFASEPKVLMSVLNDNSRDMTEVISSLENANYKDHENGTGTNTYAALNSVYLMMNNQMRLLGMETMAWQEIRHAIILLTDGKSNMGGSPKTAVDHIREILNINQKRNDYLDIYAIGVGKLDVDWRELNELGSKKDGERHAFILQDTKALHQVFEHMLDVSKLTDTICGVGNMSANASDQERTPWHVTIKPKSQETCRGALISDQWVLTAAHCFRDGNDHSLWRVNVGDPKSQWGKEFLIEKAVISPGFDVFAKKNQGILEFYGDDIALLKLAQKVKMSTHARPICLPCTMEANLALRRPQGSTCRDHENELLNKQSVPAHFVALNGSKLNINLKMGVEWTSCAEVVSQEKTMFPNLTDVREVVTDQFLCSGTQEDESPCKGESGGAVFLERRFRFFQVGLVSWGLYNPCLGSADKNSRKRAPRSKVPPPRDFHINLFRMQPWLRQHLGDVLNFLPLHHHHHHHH

human C2 M452A = molecular target: T2, human C2 M452A (human, UniProt P06681 21-752)
T2 sequence: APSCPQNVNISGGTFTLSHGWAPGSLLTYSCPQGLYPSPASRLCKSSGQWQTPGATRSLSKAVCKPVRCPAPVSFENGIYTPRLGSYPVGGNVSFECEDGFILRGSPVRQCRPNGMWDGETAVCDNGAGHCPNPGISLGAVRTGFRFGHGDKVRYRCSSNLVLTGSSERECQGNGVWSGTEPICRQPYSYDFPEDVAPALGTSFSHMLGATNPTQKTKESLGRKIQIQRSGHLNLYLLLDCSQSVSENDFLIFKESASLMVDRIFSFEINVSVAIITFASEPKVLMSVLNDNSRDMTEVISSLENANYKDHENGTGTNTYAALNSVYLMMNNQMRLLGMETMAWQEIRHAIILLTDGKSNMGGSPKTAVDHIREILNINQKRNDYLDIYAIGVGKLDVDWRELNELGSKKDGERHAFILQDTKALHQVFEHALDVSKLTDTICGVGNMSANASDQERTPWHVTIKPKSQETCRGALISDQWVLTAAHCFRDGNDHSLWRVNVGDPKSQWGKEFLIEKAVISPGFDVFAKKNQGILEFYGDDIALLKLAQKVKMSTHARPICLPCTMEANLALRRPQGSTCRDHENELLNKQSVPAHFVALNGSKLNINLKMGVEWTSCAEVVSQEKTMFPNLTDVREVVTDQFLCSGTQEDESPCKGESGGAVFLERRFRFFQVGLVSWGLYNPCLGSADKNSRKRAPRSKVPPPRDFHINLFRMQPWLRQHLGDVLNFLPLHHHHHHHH

human C2 L453A = molecular target: T3, human C2 L453A (human, UniProt P06681 21-752)
T3 sequence: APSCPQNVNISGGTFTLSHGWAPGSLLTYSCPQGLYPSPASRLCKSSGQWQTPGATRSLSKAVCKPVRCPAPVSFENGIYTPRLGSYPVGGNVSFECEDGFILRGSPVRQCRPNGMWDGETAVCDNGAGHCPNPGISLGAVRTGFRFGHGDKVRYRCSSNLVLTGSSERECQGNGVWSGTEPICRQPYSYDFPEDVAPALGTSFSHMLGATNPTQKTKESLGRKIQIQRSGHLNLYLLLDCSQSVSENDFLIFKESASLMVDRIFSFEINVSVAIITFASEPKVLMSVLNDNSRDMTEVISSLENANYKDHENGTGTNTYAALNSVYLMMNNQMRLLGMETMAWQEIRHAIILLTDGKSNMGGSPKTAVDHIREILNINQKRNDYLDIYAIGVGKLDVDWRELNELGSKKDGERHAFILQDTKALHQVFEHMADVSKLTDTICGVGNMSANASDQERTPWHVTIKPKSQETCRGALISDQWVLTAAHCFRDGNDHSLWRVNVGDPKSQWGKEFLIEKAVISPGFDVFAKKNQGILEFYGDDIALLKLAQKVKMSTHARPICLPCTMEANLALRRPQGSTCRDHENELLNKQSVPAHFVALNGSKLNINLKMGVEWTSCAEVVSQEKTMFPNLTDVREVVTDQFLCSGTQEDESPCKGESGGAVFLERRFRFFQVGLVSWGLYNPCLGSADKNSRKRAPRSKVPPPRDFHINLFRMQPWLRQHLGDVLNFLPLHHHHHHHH

human C2 R493A = molecular target: T4, human C2 R493A (human, UniProt P06681 21-752)
T4 sequence: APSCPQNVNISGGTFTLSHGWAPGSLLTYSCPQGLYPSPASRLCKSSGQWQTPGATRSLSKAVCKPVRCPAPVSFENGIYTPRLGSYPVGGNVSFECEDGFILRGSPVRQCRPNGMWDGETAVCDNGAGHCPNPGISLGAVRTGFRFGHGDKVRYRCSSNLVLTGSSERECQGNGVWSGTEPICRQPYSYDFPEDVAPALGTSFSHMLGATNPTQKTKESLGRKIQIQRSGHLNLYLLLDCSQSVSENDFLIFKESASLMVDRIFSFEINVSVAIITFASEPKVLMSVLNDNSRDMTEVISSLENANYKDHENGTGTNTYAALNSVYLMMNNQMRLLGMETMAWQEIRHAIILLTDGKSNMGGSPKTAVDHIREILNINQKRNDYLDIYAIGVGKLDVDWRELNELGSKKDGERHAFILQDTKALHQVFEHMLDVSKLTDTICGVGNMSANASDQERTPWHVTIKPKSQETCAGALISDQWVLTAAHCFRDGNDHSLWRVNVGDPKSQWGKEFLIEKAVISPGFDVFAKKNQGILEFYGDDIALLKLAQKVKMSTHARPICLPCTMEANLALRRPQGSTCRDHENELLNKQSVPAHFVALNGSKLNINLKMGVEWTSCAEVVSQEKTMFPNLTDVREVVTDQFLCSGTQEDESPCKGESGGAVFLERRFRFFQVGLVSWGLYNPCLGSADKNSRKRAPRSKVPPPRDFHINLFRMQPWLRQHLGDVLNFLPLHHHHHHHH

B1: RF16-214 (antibody, V domains shown)
VH: EVQLLESGGGLVQPGGSLRLSCAASGFTFSWYQMMWVRQAPGKGLEWVSRIYPSGGGTAYADSVKGRFTISRDNSKNTLYLQMNSLRAEDTAVYYCARDAGYGDNWGQGTLVTVSS
VL: QSALTQPPSVSVSPGQTASITCSGDKLGEKYASWYQQKAGQSPVMVIYQDRKRPSGIPERFSGSNSGNTATLTISGTQAMDEADYYCQAWDTRAVVFGGGTKLTVLG
Fold diff (human complement C2): 1 fold | Fold diff (human C2 M452A): 1 fold | Fold diff (human C2 L453A): 45 fold | Fold diff (human C2 R493A): 1 fold
